Measured values published in publication PMC9732815 (Cell reports, 2022).
Like-named read-outs stand apart in the source and are kept apart here.

Key:
crystal structure = target: the molecule itself; experiment: crystal structure
Apn2Cat(D222N/E59Q) [1] = target: T1, Apn2Cat(D222N/E59Q) (Saccharomyces cerevisiae, UniProt P38207 1-407, E59Q;D222N); experiment: X-ray crystallography
T1 sequence: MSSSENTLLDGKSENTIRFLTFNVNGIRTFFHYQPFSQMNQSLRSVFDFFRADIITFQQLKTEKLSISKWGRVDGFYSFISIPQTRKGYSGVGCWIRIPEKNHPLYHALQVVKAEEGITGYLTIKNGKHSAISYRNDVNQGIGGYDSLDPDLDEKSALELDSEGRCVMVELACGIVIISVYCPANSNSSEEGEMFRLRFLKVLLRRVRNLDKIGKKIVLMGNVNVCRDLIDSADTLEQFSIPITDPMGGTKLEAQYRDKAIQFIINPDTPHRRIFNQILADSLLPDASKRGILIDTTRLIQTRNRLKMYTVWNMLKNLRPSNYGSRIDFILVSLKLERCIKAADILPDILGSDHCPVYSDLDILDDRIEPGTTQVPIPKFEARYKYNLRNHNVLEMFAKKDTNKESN

Apn2Cat(D222N/E59Q) [2] = target: T1, Apn2Cat(D222N/E59Q); experiment: X-ray crystallography; remark: listed apart in the source

B1: Recombinant S. cerevisiae Apn2^Cat (residues 1–407) (domain or fragment, UniProt P38207 1-407, looked up)
chain: MSSSENTLLDGKSENTIRFLTFNVNGIRTFFHYQPFSQMNQSLRSVFDFFRADIITFQELKTEKLSISKWGRVDGFYSFISIPQTRKGYSGVGCWIRIPEKNHPLYHALQVVKAEEGITGYLTIKNGKHSAISYRNDVNQGIGGYDSLDPDLDEKSALELDSEGRCVMVELACGIVIISVYCPANSNSSEEGEMFRLRFLKVLLRRVRNLDKIGKKIVLMGDVNVCRDLIDSADTLEQFSIPITDPMGGTKLEAQYRDKAIQFIINPDTPHRRIFNQILADSLLPDASKRGILIDTTRLIQTRNRLKMYTVWNMLKNLRPSNYGSRIDFILVSLKLERCIKAADILPDILGSDHCPVYSDLDILDDRIEPGTTQVPIPKFEARYKYNLRNHNVLEMFAKKDTNKESN
stoichiometry N (crystal structure): 2

B2: duplex 1 (strand A self-annealed) (dsDNA)
DNA 1: TCCGAAATTTCGG
DNA 2: TCCGAAATTTCGG
modifications: five phosphorothioate bonds at the 3' end of each strand (TCCGAAAT*T*T*C*G*G)
binding result (Apn2Cat(D222N/E59Q) [1]): binds

B3: duplex 2 (strand A + strand B) (dsDNA)
DNA 1: TCCGAAATTTCGG
DNA 2: CCGAAATTTCGGA
modifications: five phosphorothioate bonds at the 3' end of each strand (A TCCGAAAT*T*T*C*G*G; B CCGAAATT*T*C*G*G*A)
binding result (Apn2Cat(D222N/E59Q) [2]): binds
